Results from patent US7018791B1, “Binding complexes” (Institute of Cancer Research: Royal Cancer Hospital, priority 1997, dated 2006).

Molecular target: T1, CCT
T1 construct: Take 20S mouse testis sucrose gradient fractions enriched in CCT; from tissue; host or cells: mouse testis, 20S sucrose gradient fractions
Assay: CCT binding to immobilised actin peptide array (Pepset pins, MAb 91a ELISA, absorbance 410 nm)
Details: FIG. 9; mouse testis CCT
Text: Peptides of 15 amino acids in length were synthesised on polyethylene pins mounted on blocks according to the method of Maeji et al (Maeji N. J. et al, 1994) and commercially available under the trade name of Pepsets™ from Chiron Mimotopes. The sequence of the peptides were such that they defined the full length of the actin sequence with a 5 amino acid overlap between the sequential peptides, and selected peptides representing key known structures in actin (Table 2 annotated). The peptides are synthesised on polyethylene pins which are presented to be compatible with standard 96 well microtitre plates. The pins become the solid phase on which interactions with CCT complexes can be probed. The method is described below. • 1. Take Pepset pins from storage at −20(° C.) and equilibrate at room temperature. • 2. Wash pins with PBS for 10 minutes at room temperature on a shaking table. • 3. Incubate pins with blocking buffer (2% w/v BSA 0.1% Tween 20 in PBS) for 60 minutes at room temperature on a shaker. • 4. Wash pins with PBS for 10 minutes at room temperature on a shaker (times 1) • 5. […] Remove pins from the microtitre plate and read the microtitre plate at 410 nm on a Dynatech ELISA plate reader. • 16. Results are expressed as a 410 nm absorbance reading for each well corresponding to each unique substrate peptide from the actin molecule. […]

GGTTMYPGIADRMQK [substrate peptide 61]
CCT binding to immobilised substrate peptide (410 nm absorbance reading): new protein interaction site
